The results in this text go back to publication PMC13036090.

Data set [1] is described as follows: Flag-KPNA2 pull-down, HEK293T, IFNγ. Particulars: glycan lost; control: cells expressing UGDH WT.
Data set [2] in a line: NADH OD340 assay, Flag-purified protein. Conditions: glycan lost; control: WT UGDH from HEK293T.
Data set [3] can be described thus: steady-state kinetics, Michaelis-Menten fit. Conditions: glycan lost; control: WT UGDH from HEK293T.
The nature of data set [4]: HABP immunofluorescence and competitive ELISA. Conditions: glycan lost; control: UGDH-KO A549 rescued with WT UGDH. For orientation: In an ELISA, binding on a coated surface is turned into a signal by an enzyme label.
Data set [5] in a line: NADH OD340 assay, Flag-purified from HEK293T. Particulars: glycan gained; control: WT UGDH, no OGT co-expression or TMG.

B1: UGDH (uridine diphosphate glucose dehydrogenase): S350A (protein)
parent chain: MFEIKKICCIGAGYVGGPTCSVIAHMCPEIRVTVVDVNESRINAWNSPTLPIYEPGLKEVVESCRGKNLFFSTNIDDAIKEADLVFISVNTPTKTYGMGKGRAADLKYIEACARRIVQNSNGYKIVTEKSTVPVRAAESIRRIFDANTKPNLNLQVLSNPEFLAEGTAIKDLKNPDRVLIGGDETPEGQRAVQALCAVYEHWVPREKILTTNTWSSELSKLAANAFLAQRISSINSISALCEATGADVEEVATAIGMDQRIGNKFLKASVGFGGSCFQKDVLNLVYLCEALNLPEVARYWQQVIDMNDYQRRRFASRIIDSLFNTVTDKKIAILGFAFKKDTGDTRESSSIYISKYLMDEGAHLHIYDPKVPREQIVVDLSHPGVSEDDQVSRLVTISKDPYEACDGAHAVVICTEWDMFKELDYERIHKKMLKPAFIFDGRRVLDGLHNELQTIGFQIETIGKKVSSKRIPYAPSGEIPKFSLQDPPNKKPKV
In the case of B1, in data set [1], the “other: KPNA2-STAT1 association in cells” value is given as “increases”. Moreover, the enzymatic_activity entry in data set [2] is given as “decreases”. Also, the “enzymatic_activity, kcat_Km” value in data set [3] was “decreases, 0.576 vs 5.07, Km value of 37.7 μM for the S350A, which was 3-fold higher than that of the WT with a Km value of 11.4 μM”. The “other: cellular hyaluronic acid level” value in data set [4] is recorded as “decreases”.

B2: UGDH (uridine diphosphate glucose dehydrogenase): TMG (50 μM) (protein)
parent chain: B1 parent chain
B2: in data set [5], the enzymatic_activity entry is “increases”.

B3: UGDH (uridine diphosphate glucose dehydrogenase): OGT co-expression (protein)
parent chain: B1 parent chain
With B3, in data set [5], the enzymatic_activity result is recorded as “increases”.
